Reference: patent US20200369755A1 (PROTHENA BIOSCIENCES, published 2020)
Substitutions are numbered along the chain they refer to. Names and notes keep the numbering of the source. One block for each binder: values may come before it.

Key:
[1] = biological target: recombinant human tau (human, UniProt P10636 1-383); experiment: SPR (Biacore T200): antibody captured on an anti-mouse chip, recombinant human tau 10-0.14 nM as analyte, global 1:1 fit
Procedure: Methods: SPR analysis was performed using a Biacore T200 to determine the binding kinetics of murine antibodies to recombinant human tau. To prepare a sensor surface, anti-mouse antibody (GE Life Sciences) was immobilized on sensor chip CM5 via amine coupling, and antibody was captured at a level to ensure maximum binding of 50 RU. Various concentrations of recombinant tau ranging from 10-0.14 nM were passed over the captured ligand at a flow rate of 50 μL/min in running buffer (HBS+0.05% P-20, 1 mg/mL BSA), for 180 sec association and 900 sec dissociation. Data were double-referenced to both an irrelevant sensor not containing antibody ligand, and 0 nM analyte concentration to account for the dissociation of ligand from the capture moiety. Data was then analyzed using a global 1:1 fit.

[2] = biological target: T1, 4R tau fibrils (UniProt P10636-6 1-383, limits assumed); experiment: ELISA, biotinylated antibody on plate-coated preformed fibrils, 4-parameter fit
T1 construct: Fibrils pelleted at 100,000 x g and coated on ELISA plates; also called fibrillar tau; recombinant tau fibrils of 4-repeat tau
Procedure: (§1) ELISA plates were coated with preformed fibrils (overnight at 4° C. in 50 mM carbonate-bicarbonate buffer, pH 9.6), washed, and blocked with 1% BSA in PBS. After blocking, plates were incubated with the indicated concentrations of biotinylated primary antibody in 0.1% BSA/PBS for 1h at room temperature. Plates were washed, and then incubated with streptavidin-HRP in 0.1% BSA/PBS for 45 min. Plates were then washed and developed with OPD, and absorbance was measured at 490 nm. Binding curves were analyzed using a 4-parameter log fit.

[3] = biological target: biotinylated recombinant tau (UniProt P10636-6 1-383, limits assumed, biotinylated); experiment: competition ELISA: inhibition of biotinylated tau binding to plate-bound low molecular weight heparin
Procedure: To test the ability of murine and humanized 3D6 variants to interrupt tau interaction with heparin, ELISA plates coated with low molecular weight heparin were first blocked with 2% BSA in PBS for 2h at room temperature. Plates were washed with TBST. After blocking, plates were incubated with biotinylated recombinant tau along with indicated concentrations of unlabeled antibody in 1% BSA/PBS for one hour at room temperature. Plates were again washed, and then incubated with streptavidin-HRP in 0.1% BSA/PBS for 45 min. Plates were then washed and developed with OPD, and absorbance was measured at 490 nm. Inhibition curves were analyzed using a 4-parameter log fit.

[4] = biological target: T2, mixed fibrils of 3-repeat and 4-repeat tau (UniProt P10636 1-352; P10636 1-383, limits assumed); experiment: ELISA on plates coated with preformed mixed 3R/4R tau fibrils, biotinylated antibody, streptavidin-HRP, OPD, A490 [binding to mixed fibrils]
T2 construct: Made by seeded growth of 3-repeat and 4-repeat tau; also called fibrils containing both 3R and 4R tau
Procedure: as §1

[5] = biological target: T3, recombinant human 4R0N tau (human, UniProt P10636 2-758); experiment: SPR, Biacore T200, antibody captured on anti-human Fc, tau as analyte, 1:1 fit
T3 construct: also called P10636-6
Procedure: Target binding analysis was performed using a Biacore T200 to compare the binding affinity of humanized 3D6 variants to recombinant human 4R0N tau. Anti-Human Fc antibody was immobilized on sensor chip CM3 via amine coupling, and humanized 3D6 variants were captured to equivalent levels. […] Data was blank subtracted to both an irrelevant sensor not containing antibody and 0 nM analyte concentration. Analysis was performed using a global 1:1 fit with Biacore Evaluation software.

T3 sequence (P10636 other isoform, or with tags, fused parts or gaps limits assumed): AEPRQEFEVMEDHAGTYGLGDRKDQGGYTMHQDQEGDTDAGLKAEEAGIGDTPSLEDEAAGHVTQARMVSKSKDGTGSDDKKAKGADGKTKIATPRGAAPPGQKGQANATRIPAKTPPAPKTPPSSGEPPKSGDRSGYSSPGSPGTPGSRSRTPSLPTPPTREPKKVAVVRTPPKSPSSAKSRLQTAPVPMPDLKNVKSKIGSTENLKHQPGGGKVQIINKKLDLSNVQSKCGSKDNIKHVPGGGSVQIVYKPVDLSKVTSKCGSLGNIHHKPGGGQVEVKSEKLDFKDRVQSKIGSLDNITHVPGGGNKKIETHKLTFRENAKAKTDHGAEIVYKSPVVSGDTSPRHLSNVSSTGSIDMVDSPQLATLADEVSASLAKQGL
recombinant human tau, sequence (P10636 other isoform, or with tags, fused parts or gaps): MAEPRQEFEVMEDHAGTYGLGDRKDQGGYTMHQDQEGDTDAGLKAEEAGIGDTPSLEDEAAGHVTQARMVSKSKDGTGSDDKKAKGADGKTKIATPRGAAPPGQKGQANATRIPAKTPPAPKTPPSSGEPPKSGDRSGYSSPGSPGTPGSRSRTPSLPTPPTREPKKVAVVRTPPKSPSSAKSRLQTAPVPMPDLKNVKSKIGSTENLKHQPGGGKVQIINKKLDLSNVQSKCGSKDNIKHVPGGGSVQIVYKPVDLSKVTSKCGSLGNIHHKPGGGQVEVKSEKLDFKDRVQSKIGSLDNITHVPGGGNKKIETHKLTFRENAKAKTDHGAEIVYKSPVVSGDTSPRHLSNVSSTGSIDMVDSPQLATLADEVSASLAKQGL
T2 sequence (P10636 other isoform, or with tags, fused parts or gaps limits assumed, chain 1 of 2): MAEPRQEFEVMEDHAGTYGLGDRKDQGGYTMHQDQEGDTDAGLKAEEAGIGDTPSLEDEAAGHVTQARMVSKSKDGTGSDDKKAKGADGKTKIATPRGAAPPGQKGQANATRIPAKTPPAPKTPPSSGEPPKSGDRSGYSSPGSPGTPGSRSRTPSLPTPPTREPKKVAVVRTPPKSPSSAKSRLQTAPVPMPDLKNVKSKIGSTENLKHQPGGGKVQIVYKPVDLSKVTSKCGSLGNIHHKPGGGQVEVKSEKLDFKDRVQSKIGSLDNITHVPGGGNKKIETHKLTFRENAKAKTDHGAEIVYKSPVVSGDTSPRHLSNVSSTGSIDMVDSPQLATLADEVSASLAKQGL
T2 sequence (P10636 other isoform, or with tags, fused parts or gaps limits assumed, chain 2 of 2): as the sequence (P10636 other isoform, or with tags, fused parts or gaps) above
T1 sequence (P10636 other isoform, or with tags, fused parts or gaps limits assumed): as the sequence (P10636 other isoform, or with tags, fused parts or gaps) above
biotinylated recombinant tau, sequence (P10636 other isoform, or with tags, fused parts or gaps limits assumed): as the sequence (P10636 other isoform, or with tags, fused parts or gaps) above

Kd [5]: 1.53 nM
B4: hu3D6VHv1bA11/L2-DIM14 (antibody, V domains shown)
VH: EVQLVQSGAEVVKPGATVKISCKASGFNIKDYYLHWVRQRPGQGLEWIGWIDPENGDTVYDPKFQGRATITADTSTDTAYLQLGSLTSEDTAVYFCSTLDFWGQGTLVTVSS
VL: DVVMTQSPLSLPVTLGQPASISCKSSQSLLDSDGKTYLNWLQQRPGQSPRRLIYDVSKLDSGVPDRFSGSGSGTDFTLKISRVEAEDVGVYYCWQGTHFPYTFGGGTKLEIK
notes: Humanized antibody with human Fc

Kd [5]: 0.708 nM | koff [5]: 0.00251 s⁻¹ | kon [5]: 3.54e+06 M⁻¹ s⁻¹
B6: hu3D6VHv1bA11/L2-DIM22 (antibody, V domains shown)
VH: B4 VH
VL: B4 VL with Q42L, D55G
notes: Humanized antibody with human Fc; also called hu3D6VHv1bA11 / hu3D6VLv2 L50G

Kd [5]: 0.696 nM | koff [5]: 0.00149 s⁻¹ | kon [5]: 2.15e+06 M⁻¹ s⁻¹
B7: hu3D6VHv1bA11/L2-DIM21 (antibody, V domains shown)
VH: B4 VH
VL: B4 VL with Q42L, D55L, L59D
notes: Humanized antibody with human Fc; also called hu3D6VHv1bA11 / hu3D6VLv2 L54D

Kd [5]: 1.03 nM
B11: hu3D6VHv1bA11/L2-DIM17 (antibody, V domains shown)
VH: B4 VH
VL: B4 VL with L59G
notes: as for B4

Kd [5]: 0.485 nM | koff [5]: 0.00133 s⁻¹ | kon [5]: 2.74e+06 M⁻¹ s⁻¹
B12: hu3D6VHv1bA11/L2-DIM12 (antibody, V domains shown)
VH: B4 VH
VL: B4 VL with D55L, L59D
notes: as for B4

Kd [5]: 36 nM | koff [5]: 0.00935 s⁻¹ | kon [5]: 260000 M⁻¹ s⁻¹
B15: hu3D6VHv1bA11/L2-DIM20 (antibody, V domains shown)
VH: B4 VH
VL: B4 VL with D55E, L59R
notes: as for B4

Kd [5]: 0.904 nM | koff [5]: 0.00285 s⁻¹ | kon [5]: 3.15e+06 M⁻¹ s⁻¹
B16: hu3D6VHv1bA11/L2-DIM13 (antibody, V domains shown)
VH: B4 VH
VL: B4 VL with D55G
notes: as for B4

Kd [5]: 1.79 nM | koff [5]: 5.88 s⁻¹
B17: hu3D6VHv1bA11/L2-DIM19 (antibody, V domains shown)
VH: B4 VH
VL: B4 VL with D55E, L59G
notes: as for B4

Kd [5]: 0.16 nM | koff [5]: 0.00074 s⁻¹ | kon [5]: 4.63e+06 M⁻¹ s⁻¹
B18: hu3D6VHv1bA11/L2-DIM9 (antibody, V domains shown)
VH: B4 VH
VL: B4 VL with Q42L, D55L, S57G
notes: Humanized antibody with human Fc; also called hu3D6VHv1bA11 / hu3D6VLv2 S52G

Kd [5]: 0.281 nM | koff [5]: 0.000971 s⁻¹ | kon [5]: 3.46e+06 M⁻¹ s⁻¹
B20: hu3D6VHv1bA11/L2-DIM7 (antibody, V domains shown)
VH: B4 VH
VL: B4 VL with Q42L, D55L, L59G
notes: Humanized antibody with human Fc; also called hu3D6VHv1bA11 / hu3D6VLv2 L54G

Kd [5]: 2.51 nM | koff [5]: 0.00378 s⁻¹ | kon [5]: 1.51e+06 M⁻¹ s⁻¹
B21: hu3D6VHv1bA11/L2-DIM18 (antibody, V domains shown)
VH: B4 VH
VL: B4 VL with L59R
notes: as for B4

Continued, binder first:

B1: 8A4 (antibody, V domains shown)
VH: EVQLQQSGAELVRPGALVKLSCKASGFNIKDYYIHWVKQRPEQGLEWIGWIDPENGDTVYDPQFQDKANITADTSSNTAYLQLSSLTSEGTAVYYCSTLDFWGQGTTLTVSS
VL: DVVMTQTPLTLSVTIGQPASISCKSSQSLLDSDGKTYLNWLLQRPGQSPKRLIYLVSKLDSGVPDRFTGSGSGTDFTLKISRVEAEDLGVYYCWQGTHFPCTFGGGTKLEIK
Kd [1]: 3.8 nM | koff [1]: 0.00227 s⁻¹ | kon [1]: 599000 M⁻¹ s⁻¹

B2: hu3D6VHv1bA11/hu3D6VLv2 (antibody, V domains shown)
VH: B4 VH
VL: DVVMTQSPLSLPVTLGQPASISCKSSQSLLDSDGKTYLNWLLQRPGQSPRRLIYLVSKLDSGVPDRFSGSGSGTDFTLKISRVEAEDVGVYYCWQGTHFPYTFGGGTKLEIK
notes: Humanized antibody expressed in 293 cells, captured by anti-human Fc; also called parental hu3D6VHv1bA11/hu3D6VLv2; h3D6Hu5 heavy chain variable region
EC50 [2]: 0.237 nM | IC50 [3]: 0.565 nM | EC50 (read off the curve) [4]: ~0.9 nM | Kd [5]: 0.181 nM | koff [5]: 0.00074 s⁻¹ | kon [5]: 4.17e+06 M⁻¹ s⁻¹

B3: h3D6VHvb8/L2-DIM8 (antibody, V domains shown)
VH: B4 VH with D61E
VL: B4 VL with D55L
notes: Humanized antibody with human Fc; also called hu3D6VHv1bA11 D60E / hu3D6VLv2 L37Q
Kd [5]: 0.427 nM | koff [5]: 0.0014 s⁻¹ | kon [5]: 3.28e+06 M⁻¹ s⁻¹

B5: h3D6VHvb8/L2-DIM6 (antibody, V domains shown)
VH: B4 VH with D61E
VL: B4 VL with D55L, S57G, L59D
notes: as for B4
Kd [5]: 1.5 nM | koff [5]: 5.67 s⁻¹

B8: hu3D6VHv1bA11/L2-DIM5 (antibody, V domains shown)
VH: B4 VH
VL: B4 VL with D55L, S57G, L59T
notes: as for B4
Kd [5]: 0.183 nM | koff [5]: 0.000735 s⁻¹ | kon [5]: 4.02e+06 M⁻¹ s⁻¹

B9: hu3D6VHv1bA11/L2-DIM6 (antibody, V domains shown)
VH: B4 VH
VL: B4 VL with D55L, S57G, L59D
notes: as for B4
Kd [5]: 1.49 nM | koff [5]: 0.00461 s⁻¹ | kon [5]: 3.08e+06 M⁻¹ s⁻¹

B10: hu3D6VHv1bA11/L2-DIM3 (antibody, V domains shown)
VH: B4 VH
VL: B4 VL with D55L, S57G, L59G
notes: as for B4
Kd [5]: 0.199 nM | koff [5]: 0.000781 s⁻¹ | kon [5]: 3.93e+06 M⁻¹ s⁻¹

B13: h3D6VHvb8/L2-DIM4 (antibody, V domains shown)
VH: B4 VH with D61E
VL: B4 VL with D55L, S57G, L59R
notes: as for B4
Kd [5]: 0.226 nM | koff [5]: 0.00102 s⁻¹ | kon [5]: 4.51e+06 M⁻¹ s⁻¹

B14: h3D6VHvb8/L2-DIM7 (antibody, V domains shown)
VH: B4 VH with D61E
VL: B4 VL with Q42L, D55L, L59G
notes: Humanized antibody with human Fc; also called hu3D6VHv1bA11 D60E / hu3D6VLv2 L54G
Kd [5]: 0.275 nM | koff [5]: 0.00119 s⁻¹ | kon [5]: 4.31e+06 M⁻¹ s⁻¹

B19: hu3D6VHv1bA11/L2-DIM4 (antibody, V domains shown)
VH: B4 VH
VL: B4 VL with D55L, S57G, L59R
EC50 [2]: 0.192 nM | IC50 [3]: 0.423 nM | EC50 (read off the curve) [4]: ~0.7 nM | Kd [5]: 0.0948 nM | koff [5]: 0.000535 s⁻¹ | kon [5]: 5.65e+06 M⁻¹ s⁻¹

B22: 5G8 (antibody, V domains shown)
VH: EVQLQQSGAELVRSGASVRLSCTASGFNIKDYYMHWVRQRPEQGLEWIGWIDPENGDTVYAPKFQGKATMTSDTSSNTAYLHLSSLTSEDTAVYYCSPLDFWGQGTTLTVSS
VL: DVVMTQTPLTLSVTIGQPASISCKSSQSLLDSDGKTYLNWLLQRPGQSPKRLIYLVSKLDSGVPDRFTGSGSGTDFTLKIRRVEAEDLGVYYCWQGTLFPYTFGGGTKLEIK
Kd [1]: 6.78 nM | koff [1]: 0.00254 s⁻¹ | kon [1]: 375000 M⁻¹ s⁻¹
